Measurements reported in PMC4822050 (2016).

T1: PHD of UHRF1 (residues 307–366) (human, UniProt Q96T88 307-366)
T1 chain: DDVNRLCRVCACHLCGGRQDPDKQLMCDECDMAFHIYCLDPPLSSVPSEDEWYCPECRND

T2: PHD-SRA of UHRF1 (human)
T2 chain: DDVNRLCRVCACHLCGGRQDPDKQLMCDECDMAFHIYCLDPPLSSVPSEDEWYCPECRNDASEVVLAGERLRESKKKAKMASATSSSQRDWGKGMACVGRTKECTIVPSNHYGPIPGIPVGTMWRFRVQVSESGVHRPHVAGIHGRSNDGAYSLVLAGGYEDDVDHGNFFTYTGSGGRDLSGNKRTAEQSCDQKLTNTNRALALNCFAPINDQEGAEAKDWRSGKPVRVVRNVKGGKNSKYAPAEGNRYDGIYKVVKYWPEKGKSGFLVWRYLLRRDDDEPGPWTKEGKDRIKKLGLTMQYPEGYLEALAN

T3: TTD of UHRF1 (residues 134–285) (human, UniProt Q96T88 134-285)
T3 chain: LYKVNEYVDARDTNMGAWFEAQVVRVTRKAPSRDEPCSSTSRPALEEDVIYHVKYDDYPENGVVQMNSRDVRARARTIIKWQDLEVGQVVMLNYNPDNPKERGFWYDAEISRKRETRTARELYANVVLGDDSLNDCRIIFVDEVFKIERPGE

T4: TTD–PHD of UHRF1 (residues 134–366) (human, UniProt Q96T88 134-366)
T4 chain: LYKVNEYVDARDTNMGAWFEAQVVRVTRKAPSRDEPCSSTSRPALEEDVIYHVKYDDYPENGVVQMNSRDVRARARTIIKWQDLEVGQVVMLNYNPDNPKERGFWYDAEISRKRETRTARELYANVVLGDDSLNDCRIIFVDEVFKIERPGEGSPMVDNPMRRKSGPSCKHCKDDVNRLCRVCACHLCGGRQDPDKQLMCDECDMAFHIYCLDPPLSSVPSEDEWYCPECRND

T5: R295D/R296D mutant of full-length UHRF1 (human, UniProt Q96T88 1-793, R295D | R296D)
T5 sequence: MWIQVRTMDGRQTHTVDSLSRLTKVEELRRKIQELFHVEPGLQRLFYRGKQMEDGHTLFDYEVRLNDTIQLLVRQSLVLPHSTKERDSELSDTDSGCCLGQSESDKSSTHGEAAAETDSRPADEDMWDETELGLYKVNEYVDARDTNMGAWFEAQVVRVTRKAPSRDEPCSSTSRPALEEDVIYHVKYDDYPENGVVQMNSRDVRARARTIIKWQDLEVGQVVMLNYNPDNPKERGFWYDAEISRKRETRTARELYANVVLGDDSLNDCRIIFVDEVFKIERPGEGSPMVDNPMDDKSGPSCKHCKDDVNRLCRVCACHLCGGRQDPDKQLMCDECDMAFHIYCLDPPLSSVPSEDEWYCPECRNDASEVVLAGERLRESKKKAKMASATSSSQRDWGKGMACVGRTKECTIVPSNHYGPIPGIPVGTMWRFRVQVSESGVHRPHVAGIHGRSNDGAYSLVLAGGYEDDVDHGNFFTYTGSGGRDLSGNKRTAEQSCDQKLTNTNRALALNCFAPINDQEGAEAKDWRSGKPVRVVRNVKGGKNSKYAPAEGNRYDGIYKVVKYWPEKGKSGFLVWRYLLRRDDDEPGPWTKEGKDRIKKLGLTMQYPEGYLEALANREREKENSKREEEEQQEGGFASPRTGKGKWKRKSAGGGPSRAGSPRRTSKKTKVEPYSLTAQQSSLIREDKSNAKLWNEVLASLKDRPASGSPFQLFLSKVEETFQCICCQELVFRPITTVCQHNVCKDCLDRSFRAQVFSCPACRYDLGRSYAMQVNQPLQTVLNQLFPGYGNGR

T6: UHRF1^Δ627–674 (human, UniProt Q96T88 1-793, Δ627–674)
T6 sequence: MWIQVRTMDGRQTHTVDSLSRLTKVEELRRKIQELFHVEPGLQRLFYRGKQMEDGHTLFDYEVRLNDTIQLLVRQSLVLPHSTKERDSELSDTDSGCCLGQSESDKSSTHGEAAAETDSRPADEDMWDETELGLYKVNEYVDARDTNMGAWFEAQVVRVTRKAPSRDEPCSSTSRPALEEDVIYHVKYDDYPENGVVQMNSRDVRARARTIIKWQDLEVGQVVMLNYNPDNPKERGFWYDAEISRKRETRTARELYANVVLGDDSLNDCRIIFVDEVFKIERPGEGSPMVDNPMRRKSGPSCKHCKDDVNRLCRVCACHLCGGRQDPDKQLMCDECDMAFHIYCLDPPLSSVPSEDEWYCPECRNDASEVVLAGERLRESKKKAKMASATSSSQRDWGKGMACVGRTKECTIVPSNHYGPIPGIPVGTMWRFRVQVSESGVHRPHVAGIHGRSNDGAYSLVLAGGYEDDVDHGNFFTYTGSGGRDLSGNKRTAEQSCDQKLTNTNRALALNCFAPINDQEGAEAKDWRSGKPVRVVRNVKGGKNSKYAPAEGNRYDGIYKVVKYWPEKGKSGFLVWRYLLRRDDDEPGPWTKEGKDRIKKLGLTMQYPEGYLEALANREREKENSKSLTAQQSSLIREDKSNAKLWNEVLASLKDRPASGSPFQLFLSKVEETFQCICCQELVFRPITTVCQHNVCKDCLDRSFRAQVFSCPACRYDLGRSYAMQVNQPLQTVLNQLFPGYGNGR


How the values were obtained:
[1] = molecular target: T1, PHD of UHRF1 (residues 307–366); experiment: ITC; in presence of SRA (PHD/SRA 1:2)
[2] = molecular target: T1, PHD of UHRF1 (residues 307–366); experiment: ITC
[3] = molecular target: T1, PHD of UHRF1 (residues 307–366); experiment: ITC; in presence of SRA (PHD/SRA 1:1)
[4] = molecular target: T2, PHD-SRA of UHRF1; experiment: ITC
[5] = molecular target: T1, PHD of UHRF1 (residues 307–366); experiment: ITC; in presence of SRA (1:1)
[6] = molecular target: T1, PHD of UHRF1 (residues 307–366); experiment: ITC; in presence of SRA (1:2)
[7] = molecular target: T3, TTD of UHRF1 (residues 134–285); experiment: ITC; in presence of Spacer S651D (1:2)
[8] = molecular target: T4, TTD–PHD of UHRF1 (residues 134–366); experiment: ITC; in presence of Spacer (TTD-PHD/Spacer 1:2)
[9] = molecular target: T5, R295D/R296D mutant of full-length UHRF1; experiment: ITC
[10] = molecular target: T3, TTD of UHRF1 (residues 134–285); experiment: ITC; in presence of Spacer R649A (1:2)
[11] = molecular target: T3, TTD of UHRF1 (residues 134–285); experiment: ITC; in presence of SRA
[12] = molecular target: T3, TTD of UHRF1 (residues 134–285); experiment: ITC
[13] = molecular target: T6, UHRF1^Δ627–674; experiment: ITC
[14] = molecular target: T4, TTD–PHD of UHRF1 (residues 134–366); experiment: ITC; in presence of Spacer (1:2)
[15] = molecular target: T3, TTD of UHRF1 (residues 134–285); experiment: ITC; in presence of Spacer K648D (1:2)

Kd [1] [µM]	Kd [2] [nM]	Kd [3] [nM]	Kd [4] [µM]	Kd [5] [nM]	Kd [6] [µM]	Kd [7] [nM]	Kd [8] [nM]	Kd [9] [µM]	Kd [10] [nM]	Kd [11] [nM]	Kd [12] [nM]	Kd [13] [nM]	Kd [14] [nM]	Kd [15] [µM]	Binder
4.64	770	2040	5.79	2040	4.64										ARTKQTARKSTGGKAPR [H3 peptide (1–17)]
						1280	1630	36.8	2890	880	990	1190	1630	6.58	ARTKQTARKSTGGKAPR (trimethyl-lysine at K9) [H3K9me3 peptide (1–17)]
